Results published in paper PMC5884726 (Structure (London, England : 1993), 2018).

Target: (UreABC)3 urease apoprotein (Klebsiella aerogenes, UniProt P18316 1-100; P18315 1-106; P18314 1-567)
Experiment: native MS

(UreABC)3 urease apoprotein, sequence (P18316 whole entry, chain 1 of 3): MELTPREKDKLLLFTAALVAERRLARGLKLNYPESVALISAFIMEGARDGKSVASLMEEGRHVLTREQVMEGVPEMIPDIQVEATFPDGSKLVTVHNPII
(UreABC)3 urease apoprotein, sequence (P18315 whole entry, chain 2 of 3): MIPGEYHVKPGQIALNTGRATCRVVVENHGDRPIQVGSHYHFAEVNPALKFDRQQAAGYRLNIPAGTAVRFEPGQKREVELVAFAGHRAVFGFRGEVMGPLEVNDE
(UreABC)3 urease apoprotein, sequence (P18314 whole entry, chain 3 of 3): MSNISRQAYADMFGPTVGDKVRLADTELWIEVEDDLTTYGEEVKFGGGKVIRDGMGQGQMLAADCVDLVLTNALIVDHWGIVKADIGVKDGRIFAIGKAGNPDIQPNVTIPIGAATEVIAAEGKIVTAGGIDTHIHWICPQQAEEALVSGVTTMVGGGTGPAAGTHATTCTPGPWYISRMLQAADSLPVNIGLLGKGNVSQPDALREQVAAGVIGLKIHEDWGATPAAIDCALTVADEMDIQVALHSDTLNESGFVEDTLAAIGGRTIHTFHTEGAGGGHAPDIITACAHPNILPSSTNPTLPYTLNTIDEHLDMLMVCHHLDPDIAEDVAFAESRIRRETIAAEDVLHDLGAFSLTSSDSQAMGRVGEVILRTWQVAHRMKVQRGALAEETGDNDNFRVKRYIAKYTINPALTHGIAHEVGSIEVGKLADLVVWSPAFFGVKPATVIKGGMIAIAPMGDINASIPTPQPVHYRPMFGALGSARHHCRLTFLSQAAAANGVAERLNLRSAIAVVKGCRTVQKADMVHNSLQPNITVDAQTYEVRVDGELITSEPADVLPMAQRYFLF

B1: maltose binding protein-UreD fusion protein (MBP-UreD) (natural protein, Klebsiella aerogenes, UniProt Q09063 1-270, looked up)
chain: MLPPLKKGWQATLDLRFHQAGGKTVLASAQHVGPLTVQRPFYPEEETCHLYLLHPPGGIVGGDELTISAHLAPGCHTLITMPGASKFYRSSGAQALVRQQLTLAPQATLEWLPQDAIFFPGANARLFTTFHLCASSRLLAWDLLCLGRPVIGETFSHGTLSNRLEVWVDNEPLLVERLHLQEGELSSIAERPWVGTLLCYPATDALLDGVRDALAPLGLYAGASLTDRLLTVRFLSDDNLICQRVMRDVWQFLRPHLTGKSPVLPRIWLT
  binding result: binds
